Measured values as given in PMC10352241, “Structure and assembly of the NOT10:11 module of the CCR4-NOT complex” (Communications Biology, 2023).

Assays:
Settings in all cases: both partners purified
[1] = biological target: T1, MBP-Hs NOT10-C (residues T351–Q707) (human, UniProt Q9H9A5 351-707); experiment: pull-down; GST pulldown with recombinant proteins; GST-NOT11 constructs as bait, MBP-tagged NOT10 constructs as prey (Fig. 3b–f; human and Drosophila)
T1 construct: human NOT10 (CNOT10), residues T351–Q707; The MBP tag is HRV3C-cleavable; no cleavage step is described; also called C-terminal portion of NOT10; source: E. coli BL21 (DE3) Star, purified (amylose resin, HiTrap Q, Superdex 200)

[2] = biological target: T2, MBP-Hs NOT10-L (residues D25–Q707) (human, UniProt Q9H9A5 25-707); experiment: as above
T2 construct: human NOT10 (CNOT10), residues D25–Q707; The MBP tag is HRV3C-cleavable (plasmid pnYC-pM); no cleavage step is described; also called isolated NOT10; source: E. coli BL21 (DE3) Star, purified (amylose resin, HiTrap Q, Superdex 200)

[3] = biological target: T3, NOT10:GST-NOT11 complex (Hs NOT10-L with GST-NOT11-C) (human, UniProt Q9H9A5 25-707; Q9UKZ1 257-498); experiment: pull-down; purified proteins; GST-NOT11-C alone or the NOT10:GST-NOT11 complex as bait, NOT1-N as prey (Fig. 3g)
T3 construct: human NOT10 (CNOT10), NOT10-L, residues D25–Q707, from pnYC-vM with a TEV-cleavable MBP tag; human NOT11 (CNOT11), NOT11-C, residues D257–D498; also called NOT10:NOT11 heterodimer; source: E. coli BL21 (DE3) Star, co-expressed, purified (glutathione agarose, TEV cleavage of MBP, HiTrap Heparin, Superdex 200); not shown: MBP, N-terminal, cleaved; GST, N-terminal, kept
T3 sequence (Q9H9A5 25-707, chain 1 of 2, other chains not shown): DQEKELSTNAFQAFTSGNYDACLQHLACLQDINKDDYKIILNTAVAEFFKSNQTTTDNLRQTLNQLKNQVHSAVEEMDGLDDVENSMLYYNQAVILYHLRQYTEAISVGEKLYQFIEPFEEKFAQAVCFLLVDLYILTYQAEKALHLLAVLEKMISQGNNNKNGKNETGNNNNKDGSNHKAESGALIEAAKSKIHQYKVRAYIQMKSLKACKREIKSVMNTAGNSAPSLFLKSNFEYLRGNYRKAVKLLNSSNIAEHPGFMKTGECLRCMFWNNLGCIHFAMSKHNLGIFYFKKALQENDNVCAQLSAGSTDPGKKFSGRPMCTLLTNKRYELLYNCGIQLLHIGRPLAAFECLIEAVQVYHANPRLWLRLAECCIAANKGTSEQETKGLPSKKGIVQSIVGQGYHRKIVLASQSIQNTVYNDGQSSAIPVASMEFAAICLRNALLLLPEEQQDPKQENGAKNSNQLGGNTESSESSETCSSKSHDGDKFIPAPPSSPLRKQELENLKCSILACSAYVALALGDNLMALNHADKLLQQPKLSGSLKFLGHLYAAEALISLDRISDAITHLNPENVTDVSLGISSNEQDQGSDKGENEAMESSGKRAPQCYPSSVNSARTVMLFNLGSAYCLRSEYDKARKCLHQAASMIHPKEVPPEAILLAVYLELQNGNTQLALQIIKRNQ

T2 sequence (Q9H9A5 25-707): as the sequence (Q9H9A5 25-707, chain 1 of 2, other chains not shown) above
T1 sequence (Q9H9A5 351-707): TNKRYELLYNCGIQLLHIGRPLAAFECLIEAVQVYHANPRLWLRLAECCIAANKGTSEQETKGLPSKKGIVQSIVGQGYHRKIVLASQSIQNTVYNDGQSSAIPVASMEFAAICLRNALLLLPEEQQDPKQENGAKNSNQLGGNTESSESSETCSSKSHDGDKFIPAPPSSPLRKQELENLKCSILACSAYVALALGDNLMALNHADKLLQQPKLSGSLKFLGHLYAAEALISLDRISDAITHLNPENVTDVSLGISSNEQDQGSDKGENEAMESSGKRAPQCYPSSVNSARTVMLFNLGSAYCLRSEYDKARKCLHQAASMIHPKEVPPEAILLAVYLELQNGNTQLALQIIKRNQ

binding result [1]	binding result [2]	binding result [3]	Binder
binds	binds	–	GST-Hs NOT11-C (residues D257–D498) (domain or fragment, human NOT11 (CNOT11), residues D257–D498; The GST tag is HRV3C-cleavable (plasmid pnEA-pG); also called GST-NOT11-C; NOT11 construct lacking the NOT11N domain; source: E. coli BL21 (DE3) Star, purified (glutathione agarose, HiTrap Q, Superdex 200); not shown: GST, N-terminal, kept) not shown
–	–	binds	Hs NOT1-N (residues D4–N682) (domain or fragment, human, UniProt A5YKK6 4-682, looked up, human NOT1 (CNOT1), residues D4–N682; The purification of NOT1-N is not described; source: E. coli BL21 (DE3) Star, purified) DSLSLALSQISYLVDNLTKKNYRASQQEIQHIVNRHGPEADRHLLRCLFSHVDFSGDGKSSGKDFHQTQFLIQECALLITKPNFISTLSYAIDNPLHYQKSLKPAPHLFAQLSKVLKLSKVQEVIFGLALLNSSSSDLRGFAAQFIKQKLPDLLRSYIDADVSGNQEGGFQDIAIEVLHLLLSHLLFGQKGAFGVGQEQIDAFLKTLRRDFPQERCPVVLAPLLYPEKRDILMDRILPDSGGVAKTMMESSLADFMQEVGYGFCASIEECRNIIVQFGVREVTAAQVARVLGMMARTHSGLTDGIPLQSISAPGSGIWSDGKDKSDGAQAHTWNVEVLIDVLKELNPSLNFKEVTYELDHPGFQIRDSKGLHNVVYGIQRGLGMEVFPVDLIYRPWKHAEGQLSFIQHSLINPEIFCFADYPCHTVATDILKAPPEDDNREIATWKSLDLIESLLRLAEVGQYEQVKQLFSFPIKHCPDMLVLALLQINTSWHTLRHELISTLMPIFLGNHPNSAIILHYAWHGQGQSPSIRQLIMHAMAEWYMRGEQYDQAKLSRILDVAQDLKALSMLLNGTPFAFVIDLAALASRREYLKLDKWLTDKIREHGEPFIQACMTFLKRRCPSILGGLAPEKDQPKSAQLPPETLATMLACLQACAGSVSQELSETILTMVANCSNVMN
